In patent publication US20250320281A1:

Columns and labels:
Assay in all cases: cell-based or functional assay
[1] = molecular target: HIV-1 APV6 Env (pseudovirus, clade B) (HIV-1)
[2] = molecular target: HIV-1 Env of isolate MGRM-C-028 (HIV-1)
[3] = molecular target: HIV-1 Env of isolate MGRM-Chronic-B-003 (subtype B pseudovirus) (HIV-1)
[4] = molecular target: HIV-1 MGRM-AG-005 Env (pseudovirus) (HIV-1)
[5] = molecular target: HIV-1 Env of isolate 6535.3 (HIV-1)
[6] = molecular target: HIV-1 Env of isolate 92RW008 (HIV-1)
[7] = molecular target: HIV-1 Env of isolate 92UG114 (HIV-1)
[8] = molecular target: HIV-1 Env of isolate 93IN905 (subtype C) (HIV-1)
[9] = molecular target: HIV-1 Env of isolate 98IN022 (subtype C) (HIV-1)
[10] = molecular target: HIV-1 Env of isolate MG RM-D-020 (HIV-1)
[11] = molecular target: HIV-1 Env of isolate MG RM-D-022 (HIV-1)
[12] = molecular target: HIV-1 Env of isolate MGRM-AE-003 (subtype AE) (HIV-1)
[13] = molecular target: HIV-1 Env of isolate MGRM-AG-003 (subtype AG) (HIV-1)
[14] = molecular target: HIV-1 Env of isolate MGRM-AG-006 (subtype AG) (HIV-1)
[15] = molecular target: HIV-1 Env of isolate MGRM-Chronic-B-017 (subtype B) (HIV-1)
[16] = molecular target: HIV-1 envelope glycoprotein (Env) of isolate MGRM-C-015 (HIV-1)
[17] = molecular target: HIV-1 envelope glycoprotein (Env) of isolate MGRM-C-017 (HIV-1)
[18] = molecular target: HIV-1 envelope glycoprotein (Env) of isolate MGRM-C-025 (HIV-1)
[19] = molecular target: HIV-1 envelope glycoprotein (Env) of isolate MGRM-C-027 (HIV-1)
[20] = molecular target: HIV-1 93IN905 envelope glycoprotein (Env) on pseudovirus (HIV-1)
[21] = molecular target: HIV-1 93UG077 envelope glycoprotein (Env) on pseudovirus (HIV-1)
[22] = molecular target: aMLV envelope protein on pseudovirus (negative control)
[23] = molecular target: HIV-1 Env of isolate MGRM-G-006 (HIV-1)
[24] = molecular target: HIV-1 Env of isolate MGRM-G-009 (HIV-1)
[25] = molecular target: HIV-1 Env of isolate MGRM-G-019 (HIV-1)

Sequence of 5345_I01 (PGT-137) (antibody) (VH): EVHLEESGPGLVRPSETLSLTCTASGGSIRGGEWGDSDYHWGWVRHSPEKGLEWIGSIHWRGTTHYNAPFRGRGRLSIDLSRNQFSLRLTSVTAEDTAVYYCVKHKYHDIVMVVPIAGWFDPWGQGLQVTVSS
Sequence of 5345_I01 (PGT-137) (antibody) (VL): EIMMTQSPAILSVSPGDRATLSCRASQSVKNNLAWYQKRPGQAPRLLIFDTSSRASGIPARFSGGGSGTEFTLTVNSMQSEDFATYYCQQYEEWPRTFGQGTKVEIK
Sequence of 5329_C19 (PGT-136) (antibody) (VH): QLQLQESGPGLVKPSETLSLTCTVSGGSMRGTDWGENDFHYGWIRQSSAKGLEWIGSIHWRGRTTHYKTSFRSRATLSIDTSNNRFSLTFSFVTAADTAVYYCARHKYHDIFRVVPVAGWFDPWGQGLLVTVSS
Sequence of 5329_C19 (PGT-136) (antibody) (VL): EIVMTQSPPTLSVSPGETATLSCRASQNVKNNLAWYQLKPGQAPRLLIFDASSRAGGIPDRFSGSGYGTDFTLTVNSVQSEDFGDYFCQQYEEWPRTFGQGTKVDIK

Substance | IC50 neutralization [1] | neutralization IC50 [2] | IC50 (µg/mL), pseudovirus neutralization [3] | neutralization IC50 (pseudovirus) [4] | neutralization IC50 [5] | IC50 [6] | IC50 (µg/mL), pseudovirus neutralization [7] | IC50 neutralization [8] | IC50 neutralization [9] | IC50 (µg/mL), pseudovirus neutralization [10] | IC50 (µg/mL), pseudovirus neutralization [11] | IC50 (µg/mL), pseudovirus neutralization [12] | IC50 (µg/mL), pseudovirus neutralization [13] | IC50 (µg/mL), pseudovirus neutralization [14] | IC50 neutralization [15] | IC50 (µg/mL), pseudovirus neutralization [16] | IC50 (µg/mL), pseudovirus neutralization [17] | IC50 (µg/mL), pseudovirus neutralization [18] | IC50 (µg/mL), pseudovirus neutralization [19] | further results
5123_A06 (PGT-125) (antibody) | 0.0359 µg/mL | 14 µg/mL | 0.157 µg/mL | > 10 µg/mL |  |  |  |  |  |  |  |  |  |  |  |  |  |  |  | 
5136_H01 (PGT-131) (antibody) |  |  |  |  | 0.056 µg/mL | 1.01 µg/mL | > 50 µg/mL | 0.177 µg/mL | > 50 µg/mL | > 50 µg/mL | > 50 µg/mL | 1.41 µg/mL | 2.92 µg/mL | 0.019 µg/mL | > 50 µg/mL | 1.01 µg/mL | > 50 µg/mL | > 50 µg/mL | 0.065 µg/mL | 
5141_B17 (PGT-126) (antibody) | 0.0249 µg/mL | 0.196 µg/mL | 0.041 µg/mL | 1.35 µg/mL |  |  |  |  |  |  |  |  |  |  |  |  |  |  |  | IC50, pseudovirus neutralization [20]: 0.0194 µg/mL; IC80 (pseudovirus neutralization) [20]: 0.0676 µg/mL; IC90 (pseudovirus neutralization) [20]: 0.14 µg/mL; IC95 (pseudovirus neutralization) [20]: 0.275 µg/mL; IC50, pseudovirus neutralization [21]: 0.0256 µg/mL; IC80 (pseudovirus neutralization) [21]: 0.102 µg/mL; IC90 (pseudovirus neutralization) [21]: 0.238 µg/mL; IC95 (pseudovirus neutralization) [21]: 0.577 µg/mL; IC50, pseudovirus neutralization [22]: > 10 µg/mL; IC80 (pseudovirus neutralization) [22]: > 10 µg/mL; IC90 (pseudovirus neutralization) [22]: > 10 µg/mL; IC95 (pseudovirus neutralization) [22]: > 10 µg/mL
5145_B14 (PGT-127) (antibody) |  | 7.57 µg/mL | 0.12 µg/mL |  |  |  |  |  |  |  |  |  |  |  |  |  |  |  |  | 
5147_N06 (PGT-130) (antibody) | > 10 µg/mL |  |  | 0.947 µg/mL | 0.031 µg/mL | 0.089 µg/mL | > 50 µg/mL | 0.02 µg/mL | > 50 µg/mL | 24.7 µg/mL | > 50 µg/mL | 0.337 µg/mL | 0.041 µg/mL | 0.009 µg/mL | > 50 µg/mL | 0.344 µg/mL | > 50 µg/mL | > 50 µg/mL | 0.008 µg/mL | Neutralization by PGT-130, IC50 [4]: 0.947 µg/mL; Neutralization by PGT-130, IC80 [4]: > 10 µg/mL; Neutralization by PGT-130, IC90 [4]: > 10 µg/mL; Neutralization by PGT-130, IC95 [4]: > 10 µg/mL
5329_C19 (PGT-136) (antibody) | > 10 µg/mL |  |  |  | > 50 µg/mL | > 50 µg/mL | > 50 µg/mL | 0.011 µg/mL | 13.6 µg/mL | > 50 µg/mL | > 50 µg/mL | > 50 µg/mL | > 50 µg/mL | 29.1 µg/mL | > 50 µg/mL | 11.1 µg/mL | > 50 µg/mL | > 50 µg/mL | > 50 µg/mL | IC50 (neutralizing activity, pseudovirus) [4]: > 10 µg/mL
5345_I01 (PGT-137) (antibody) |  |  |  |  | > 50 µg/mL | 0.148 µg/mL | > 50 µg/mL | 0.042 µg/mL | 0.408 µg/mL | > 50 µg/mL | > 50 µg/mL | > 50 µg/mL | > 50 µg/mL | 28.3 µg/mL | > 50 µg/mL | 1.98 µg/mL | > 50 µg/mL | > 50 µg/mL | > 50 µg/mL | 
PGV04 (antibody) |  |  |  |  |  |  |  |  |  |  |  |  |  |  |  |  |  |  |  | IC50 (µg/mL), pseudovirus neutralization [5]: 0.757 µg/mL; IC50 (µg/mL), pseudovirus neutralization [23]: 0.083 µg/mL; IC50 (µg/mL), pseudovirus neutralization [24]: 0.043 µg/mL; IC50 (µg/mL), pseudovirus neutralization [25]: 0.027 µg/mL
VRC01 (antibody) |  |  |  |  |  |  |  |  |  |  |  | 0.685 µg/mL |  |  |  |  |  |  |  | IC50 [10]: 0.192 µg/mL; IC50 [11]: > 50 µg/mL; IC50 (µg/mL), pseudovirus neutralization [2]: 0.319 µg/mL; IC50 (µg/mL), pseudovirus neutralization [23]: 0.055 µg/mL; IC50 (µg/mL), pseudovirus neutralization [24]: 0.073 µg/mL; IC50 (µg/mL), pseudovirus neutralization [25]: 0.06 µg/mL
